B1: Dystrobrevin alpha, residues 235 to 294; numbered along this chain, Q9Y4J8 (parent)
chain: ENVFHPVECSYCHSESMMGFRYRCQQCHNYQLCQDCFWRGHAGGSHSNQHQMKEYTSWKS

± gives the uncertainty stated by the source.

Variants of B1 are the subject of the data set. In words: abundance fitness (aPCA) (normalised: wild type 0, dead -1); higher = more abundant; growth selection in yeast, the domain comes from the species named. As to conditions: Homo sapiens.
Regarding F37M, the abundance fitness turned out to be 0.081 ± 0.086.
The figure for F37V is -0.045 ± 0.071; for F37H it is -0.092 ± 0.18; for F37Y it is -0.052 ± 0.17.
Consider F37L, for which the abundance fitness was -0.232 ± 0.079.
The figure for F37E is -0.101 ± 0.074; for M52Y it is -0.18 ± 0.11; for M52R it is -0.792 ± 0.078.
Then M52P, with -0.478 ± 0.094; and M52S, with -0.628 ± 0.09.
Then M52E, with -0.567 ± 0.15; and S57R, with -0.152 ± 0.056; and S57V, with 0.005 ± 0.068.
For S57K, the abundance fitness is -0.019 ± 0.069.
Then S57D, with 0.071 ± 0.12.
The figure for S57T is 0.008 ± 0.064; for S60A it is -0.446 ± 0.24.
Then S60F, with 0.02 ± 0.12; and S60V, with 0.034 ± 0.18; and S60Q, with 0.216 ± 0.15.
As to S60C, the abundance fitness is -0.276 ± 0.14.
Then E15A, with -0.041 ± 0.055; and E15I, with 0.018 ± 0.14; and E15W, with -0.104 ± 0.072.
E15G: the abundance fitness is -0.105 ± 0.062.
In the case of E15K, the abundance fitness was -0.022 ± 0.083.
The figure for E15L is -0.087 ± 0.05.
With E15Y, the abundance fitness is -0.23 ± 0.091.
The figure for H50A is -0.543 ± 0.053.
Then H50Y, with -0.527 ± 0.076; and H50P, with -0.463 ± 0.052; and H50D, with -0.411 ± 0.055.
Then H50Q, with -0.509 ± 0.058; and H50G, with -0.493 ± 0.048.
On to W38Q, for which the abundance fitness was found to be 0.228 ± 0.093.
The figure for W38R is 0.364 ± 0.054; for W38C it is 0.215 ± 0.066.
Take W38P: the abundance fitness was -0.146 ± 0.082.
The figure for W38H is 0.014 ± 0.19.
The figure for Q25W is -0.662 ± 0.11; for Q25M it is 0.061 ± 0.091; for Q25F it is -0.325 ± 0.12.
The figure for Q25P is -0.426 ± 0.078; for Q25A it is -0.213 ± 0.063; for Q25R it is -0.158 ± 0.052.
Q25Y: the abundance fitness is -0.327 ± 0.087.
The figure for Q25T is -0.004 ± 0.072; for C27W it is -0.838 ± 0.13; for C27L it is -0.998 ± 0.14.
The figure for C27D is -0.667 ± 0.13; for C27V it is -0.85 ± 0.066.
The figure for F4I is 0.19 ± 0.12; for F4C it is 0.009 ± 0.082; for F4A it is -0.049 ± 0.067.
For F4R, the abundance fitness was -0.081 ± 0.049.
The figure for F4N is 0.037 ± 0.08; for F4W it is -0.224 ± 0.075.
Then N2E, with 0.032 ± 0.1; and N2F, with -0.121 ± 0.077.
The figure for N2R is -0.109 ± 0.062; for N2K it is -0.007 ± 0.06.
With N2H, the abundance fitness was -0.394 ± 0.1.
As for N2C, the abundance fitness was -0.33 ± 0.18.
The figure for N2L is -0.158 ± 0.11.
The figure for D35H is 0.001 ± 0.12; for D35S it is -0.033 ± 0.061.
The figure for D35P is 0.025 ± 0.07; for D35Q it is -0.204 ± 0.1.
As for H46I, the abundance fitness was -0.366 ± 0.094.
Then H46Y, with -0.538 ± 0.12; and H46F, with -0.514 ± 0.14; and H46V, with -0.227 ± 0.076.
Then H46L, with -0.419 ± 0.078.
On to H46E, for which the abundance fitness is -0.198 ± 0.081.
Then H46C, with -0.366 ± 0.11.
The figure for Q49R is 0.017 ± 0.035; for Q49K it is -0.14 ± 0.046; for Q49P it is -0.249 ± 0.052.
Regarding Q49C, the abundance fitness is -0.083 ± 0.049.
Regarding Q49V, the abundance fitness is -0.034 ± 0.036.
The figure for Q49D is 0.128 ± 0.06; for Q49L it is -0.003 ± 0.034.
The figure for T56N is -0.045 ± 0.19; for T56P it is 0.126 ± 0.059; for T56E it is 0.307 ± 0.12.
With T56V, the abundance fitness was -0.137 ± 0.06.
The figure for T56K is 0.066 ± 0.1; for T56W it is -0.605 ± 0.093.
As for T56I, the abundance fitness is -0.218 ± 0.097.
Then V3Y, with 0.018 ± 0.14.
V3A: the abundance fitness was -0.075 ± 0.075.
Then V3E, with 0.053 ± 0.083; and V3K, with 0.213 ± 0.066.
The figure for V3F is -0.248 ± 0.21; for V3G it is -0.217 ± 0.06.
The figure for V3S is 0.134 ± 0.065.
In the case of R39N, the abundance fitness came out at 0.086 ± 0.063.
Then R39E, with 0.074 ± 0.048; and R39L, with -0.08 ± 0.032.
The figure for R39Q is 0.116 ± 0.056; for R39W it is -0.282 ± 0.043.
The figure for R39C is -0.071 ± 0.053; for R39H it is 0.092 ± 0.062.
For the variant C24T, the abundance fitness is -0.752 ± 0.1.
Then C24Q, with -0.561 ± 0.1.
The figure for C24P is -1.08 ± 0.28.
Turning to C24R, the abundance fitness was -0.97 ± 0.071.
Then C24H, with -0.887 ± 0.15; and C24I, with -0.822 ± 0.19.
Then C24L, with -0.911 ± 0.062; and E1S, with -0.183 ± 0.23.
With E1K, the abundance fitness is -0.248 ± 0.33.
For the variant E1C, the abundance fitness worked out at 0.297 ± 0.3.
In the case of E1P, the abundance fitness is -0.076 ± 0.45.
The figure for E1R is -0.462 ± 0.11; for S47M it is -0.322 ± 0.079; for S47A it is -0.349 ± 0.054.
The figure for S47W is -0.051 ± 0.095; for S47D it is 0.044 ± 0.056; for S47K it is 0.038 ± 0.087.
The figure for S47L is -0.333 ± 0.086; for S47N it is 0.029 ± 0.058; for S47P it is -0.172 ± 0.072.
For the variant S47I, the abundance fitness is -0.25 ± 0.076.
On to V7H, for which the abundance fitness was -0.055 ± 0.073.
The figure for V7K is -0.086 ± 0.093; for V7S it is 0 ± 0.043; for V7E it is 0.012 ± 0.077.
Then M17R, with 0.007 ± 0.046; and M17C, with -0.055 ± 0.069.
The figure for M17V is 0.004 ± 0.059; for M17Q it is -0.019 ± 0.086; for M17S it is 0.109 ± 0.053.
Turning to Y11M, the abundance fitness is -0.055 ± 0.071.
Then Y11P, with -0.658 ± 0.14; and Y11C, with -0.247 ± 0.073; and Y11I, with -0.191 ± 0.095.
The figure for Y11W is -0.155 ± 0.067; for Y55N it is -0.144 ± 0.19; for Y55W it is 0.06 ± 0.04.
Consider Y55C, for which the abundance fitness was found to be 0.209 ± 0.085.
For the variant Y55S, the abundance fitness was 0.245 ± 0.058.
The figure for Y55T is 0.104 ± 0.095.
The figure for Y55L is 0.06 ± 0.075; for Q34P it is -0.163 ± 0.16.
Then Q34R, with -0.047 ± 0.053.
Consider Q34N, for which the abundance fitness is -0.146 ± 0.11.
With Q34Y, the abundance fitness is -0.147 ± 0.12.
Then Q34F, with -0.394 ± 0.14; and Q34D, with -0.267 ± 0.13.
Then Q34T, with -0.19 ± 0.17; and Q34L, with -0.423 ± 0.092; and S16P, with -0.029 ± 0.059.
On to S16F, for which the abundance fitness was -0.084 ± 0.054.
Then S16M, with -0.041 ± 0.073; and S16A, with -0.049 ± 0.059; and S16D, with 0.012 ± 0.085.
As for S16E, the abundance fitness is -0.033 ± 0.067.
As to S16H, the abundance fitness is -0.206 ± 0.083.
Then S16G, with -0.128 ± 0.056; and S16L, with 0.023 ± 0.045.
With S16V, the abundance fitness is 0.009 ± 0.055.
A42L: the abundance fitness is -0.285 ± 0.06.
The figure for A42E is 0.081 ± 0.072; for A42N it is -0.077 ± 0.11.
Consider A42K, for which the abundance fitness was -0.224 ± 0.091.
The figure for K59E is -0.127 ± 0.15.

(Values after the Human Domainome abundance scans (Beltran et al. 2025).)
